For experiment [1], the target named is Rhesus CCR5 (Rhesus Macaque). The experiment is described as follows: cell-based or functional assay.
The next experiment deals with human CCR5 (human) (UniProt P51681). Description: cell-based or functional assay.

The values that follow come from patent publication US20100266598A1.

In the case of monoclonal antibody (mAb) 2D7, in experiment [1], the % Inhibition, Rhesus PBMC (#810) x 12E1/SIV239, inhibitor at 20 µg/ml turned out to be 4% and the No. of Syncytia, Rhesus PBMC (#810) x 12E1/SIV239, inhibitor at 20 µg/ml came to 258 syncytia. In the experiment with human CCR5 (human), this substance returned a % Inhibition, PM1 x 12E1/BaL, inhibitor at 20 µg/ml of 99%; a CCR5-tropic virus neutralization (percent inhibition of p24) at 50 µg/ml of 82 to 93%; an IC50 of PBMC infection by BaL, JR-CSF and 92US657 of 2 to 4 µg/mL; a No. of Syncytia, PM1 x 12E1/BaL, inhibitor at 20 µg/ml of 5 syncytia.
In the case of pre-immune rabbit IgG (antibody), in experiment [1], the % Inhibition, Rhesus PBMC (#810) x 12E1/SIV239, inhibitor at 25 µg/ml amounted to 0% and the No. of Syncytia, Rhesus PBMC (#810) x 12E1/SIV239, inhibitor at 25 µg/ml stood at 285 syncytia. In the experiment with human CCR5 (human), this substance registered a % Inhibition, PM1 x 12E1/BaL, inhibitor at 25 µg/ml of 0% and a No. of Syncytia, PM1 x 12E1/BaL, inhibitor at 25 µg/ml of 487 syncytia.
